Measurements taken from patent US20250268980A1, “AN ANTICANCER THERAPY TARGETING RAS AND OTHER ONCOGENIC SIGNALS BY INHIBITION OF DYNAMIC BLEBBING AND/OR SEPTINS” (THE BOARD OF REGENTS OF THE UNIVERSITY OF TEXAS SYSTEM, priority 2022, published 2025).

How the values were obtained:
All Septins [1] = test: HaloLink pulldown from unperturbed A375 cells, LC-MS/MS
All Septins [2] = test: HaloLink pulldown from MV3 cells, LC-MS/MS

B1: mouse SEPT6-HALO (protein, UniProt Q9R1T4 2-434, looked up, not shown: small tags and cut ends; large carriers)
chain: AAADIARQVGEDCRTVPLAGHVGFDSLPDQLVNKSVSQGFCFNILCVGETGLGKSTLMDTLFNTKFEGEPATHTQPGVQLQSNTYDLQESNVGLKLTIVSTVGFGDQINKEDSYKPIVEFIDAQFEAYLQEELKIRRVLHSYHDSRIHVCLYFIAPTGHSLKSLDLVTMKKLDSKVNIIPVIAKSDAISKSELAKFKIKITSELVSNGVQIYQFPTDDESVSEINGTMNAHLPFAVVGSTEEVKIGNKMMRARQYPWGTVQVENEAHCDFVKLREMLIRVNMEDLREQTHARHYELYRRCKLEEMGFKDTDPDSKPFSLQETYEAKRNEFLGELQKKEEEMRQMFVQRVKEKEAELKEAEKELHEKFDRLKKLHQEEKKKLEDKKKCLDEEMNAFKQRKAAAELLQSQGSQAGGSQTLKRDKEKKNNPWLCIE
Question: How did the % of total protein abundance (All Septins [1]) turn out when B1 was run?
Answer: 7.04%

Question: What about the fold change between lysate and pulldown (% of total protein abundance) (All Septins [1]) of the same binder?
Answer: 56 fold

Question: What about the % of total protein abundance (All Septins [2]) of the same binder?
Answer: 8.06%

Question: And the fold change between lysate and pulldown (% of total protein abundance) (All Septins [2])?
Answer: 35.9 fold
